The results in this text go back to US20250163139A1 (Hoffmann-La Roche, published 2025).

The target of one test is human VEGF165 (human, UniProt P15692-4 27-191). In words: competition ELISA: Fab titrated against 10 pM VEGF165, free VEGF detected on plate-coated VEGF-R1. The procedure:
(§1) The contact time between the Fab-Antigen mixture and the receptor-coated plate was restricted to 10 min at RT in order to minimize interference with the binding equilibria. […] The latter is detected exploiting the chromogenic conversion of the HRP substrate 3,3′,5,5′-tetramethylbenzidine TMB to 3,3′,5,5′-tetramethylbenzidine […], which can be followed by a change in absorbance at 450 nm. TMB was prewarmed to room temperature and incubated on the plate for 5 min before being quenched by the addition of IN H₂SO₄.
In general terms: In an ELISA, binding on a coated surface is turned into a signal by an enzyme label.

In test [1] the target is human VEGF-A (isoform not given) (human, UniProt P15692-4 27-191, limits assumed). Put plainly: cell-based or functional assay.
Test [2] has as its target T1, human IL6 (human, UniProt P05231 30-212). In words: cell-based or functional assay.
The target in test [3] is T1, human IL6. In words: SPR, Fab captured on anti-Fab chip, human IL6 as analyte. The procedure: (§2) A Human Fab Binder (28958325, Cytiva) was diluted at a final concentration of 10 μg/ml in 10 mM sodium acetate buffer, pH 5.0 and immobilized on a CM5 sensor chip using standard amine coupling chemistry. […] The reference channel was treated accordingly.
(§3) Prior to the protein measurements five startup cycles were performed for conditioning purposes. On each cycle, HBS-EP+ buffer was flowed for 120 s followed by the regeneration of the derivatized chip surface by applying 10 mM Glycine buffer pH2.0 for 60 s. Fab fragment at a concentration of 75 nM was captured on this surface for 60 s at a flow rate of 10 μl/min in HBS-EP+ buffer. No Fab fragment was applied to the reference channel. […] Regeneration of the derivatized chip surface was achieved as described above. Data were evaluated with 8K Evaluation software (Biacore Insight Evaluation 3.0). Double referencing was used and the 1:1 Binding model was used to fit the raw data.

Test [4] concerns the target T2, cynomolgus monkey IL6 (cynomolgus monkey, UniProt P79341 28-212, limits assumed).
T2 construct: also called cynomolgus IL6; cyIL-6
T2 sequence (looked up): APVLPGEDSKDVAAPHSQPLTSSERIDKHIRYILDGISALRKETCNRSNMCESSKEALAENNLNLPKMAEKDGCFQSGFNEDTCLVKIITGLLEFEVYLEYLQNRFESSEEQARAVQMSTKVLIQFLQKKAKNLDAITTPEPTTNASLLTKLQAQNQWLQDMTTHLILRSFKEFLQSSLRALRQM
In words: SPR, Fab captured on anti-Fab chip, cynomolgus IL6 as analyte. As to the method: as §2, §3
On the technique in general: In SPR one partner is held on a chip, and binding of the other changes the refractive index at the surface.

In the next test the target is T3, human VEGF121 (human, UniProt P15692 181-395).
T3 construct: The limits of the proteins used (Humanzyme HZ-1206); also called human VEGFA121
T3 sequence: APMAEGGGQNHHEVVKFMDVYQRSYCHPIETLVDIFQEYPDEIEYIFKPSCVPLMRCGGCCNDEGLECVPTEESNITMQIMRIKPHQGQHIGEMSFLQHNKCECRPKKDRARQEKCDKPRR
In words: competition ELISA: Fab titrated against 10 pM VEGF121, free VEGF detected on plate-coated VEGF-R1. The procedure: as §1

The target of test [5] is T1, human IL6. Put plainly: SPR in analogy to Example 3, Fab captured on anti-Fab chip. The procedure:
as §2, §3

Test [6] concerns the target T2, cynomolgus monkey IL6. The description is as above. As to the method: as §2, §3

B1: 6HVL_4 (Fab, V domains shown)
VH: YPQLVESGGGLVQPGGSLRLSCEASVLFKHQDMSWVRQAPGKGLEWVGSIDPRGDHKYYNTKFIDRFTISRDNSKNTLYLQMNSLRAEDTAVYYCARDLDFMDEWGQGTLVTVSS
VL: AIYMHQEPSSLSASVGDRVTITCQASYWLNSELAWYQQKPGKAPKLLIYDGDDRYPEVPSRFSGSGSHEDYTLTISSLQPEDFATYYCQQYRYTPYTFGQGTKLEIKR
notes: Bispecific Fab; also called VEGF/IL6-bispecific antibody 6HVL_4
On to B1, for which the results for the IC50 with human VEGF165 and with human VEGF121 were 0.111 nM and 0.458 nM, respectively. Further, in test [1], the “IC50, inhibition of VEGF-A-induced HUVEC proliferation (alamarBlue)” value worked out at 2.06 nM. In addition, in the test with human IL6 [2], the “IC50, inhibition of IL-6/IL-6R-induced ICAM-1 surface expression on HRMECs (flow cytometry)” value came to 1.52 nM. Further, the Kd in the test with human IL6 [3] was 0.069 nM; with cynomolgus monkey IL6 [4] it was 1.48 nM.

B2: 6HdL2.05 (Fab, V domains shown)
VH: YPQLVESGGGLVQPGGSLRLSCEASVLFKHQDMSWVRQAPGKGLEWVGSISPSGGSTYYNDNVLGRFTISRDNSKNTLYLQMNSLRAEDTAVYYCARDLDFMDEWGQGTLVTVSS
VL: DIQMTQSPSSLSASVGDRVTITCRASQGISNYLAWYQQKPGKAPKLLIYDGDDRYPEVPSRFSGSGSGTDFTLTISSLQPEDFATYYCQQYYSTPYTFGQGTKLEIKR
notes: also called monospecific anti-IL6 antibody 6HdL2.05
Turning to B2, the Kd in the test with human IL6 [5] turned out to be 0.022 nM; in the test with cynomolgus monkey IL6 [6], 1.3 nM.

B3: 6HVL_4_YHE (Fab, V domains shown)
VH: YPQLVESGGGLVQPGGSLRLSCEASVLFKHQDMSWVRQAPGKGLEWVGSIDPRGDHKYYNTKFIDRFTISRDNSKNTLYLQMNSLRAEDTAVYYCARDLDFMDEWGQGTLVTVSS
VL: AIQMTQSPSSLSASVGDRVTITCQASYWLNSELAWYQQKPGKAPKLLIYDGDDRYPEVPSRFSGSGSHEDYTLTISSLQPEDFATYYCQQYRYTPYTFGQGTKLEIKR
For the molecule B3, the IC50 stood at 0.135 nM in the test with human VEGF165 and 0.528 nM in the test with human VEGF121. For the same molecule, the Kd worked out at 0.065 nM in the test with human IL6 [3] and 1.39 nM with cynomolgus monkey IL6 [4].

B4: VH6L-BM (Fab, V domains shown)
VH: YYQLVESGGGLVQPGGSLRLSCAADGFLFSGYAMSWIRQAPGKGLEWIGQISGSGGSTVYNYNVLGRFTISRDNSKNTLYLQMNSLRAEDTAVYYCARDTGYFDHWGQGTLVTVSS
VL: NIQKTQSPSSLSASVGDRVTITCRALWHISSYLAWYQQKPGKAPKLLIYAASHLHYGVPSRFSGSGSGTDFTLTISSLQPEDFATYYCQQYSGLPYTFGQGTKVEIK
notes: Prior art control, prepared by recombinant expression; also called bispecific antibody VH6L of WO2012/163520
In the test with human IL6 [3], B4 returned an equilibrium dissociation constant (Kd) of 3.5 nM.

By IC50 is commonly meant the point on the concentration scale where inhibition reaches its midpoint. In general, Kd refers to a measure of binding affinity in units of concentration.
